What was measured:
human BiP [1] = target: T1, human BiP (Homo sapiens, UniProt P11021); assay: ELISA: binding of BiP-FLAG-His to immobilized (misfolded) protein ligands; conditions: ligands coated at 5 μg/ml; 6BB peptides and oxLDL 50 μg/ml
T1 construct: The human BiP gene except the signal peptide encoding region was obtained from Geneart (Germany); linker […]; made in house; host or cells: HEK 293E cells, transient transfection, PABC674 vector; secreted into the medium
Method: Enzyme Linked Immunosorbent Assay for Testing of Chaperone Binding to Misfolded Proteins
(§1) Binding of chaperones to immobilized (misfolded) protein ligands was determined using an enzyme linked immuno sorbent assay (ELISA) approach. For this purpose 50 μl/well of potential ligands at indicated concentrations or coat buffer only for control and background measurement purposes, were coated overnight at 4° C. or coated for 1 h at room temperature, with motion, in 50 mM NaHCO3 pH 9.6 (coat buffer). In general, ligands were coated at 5 μg/ml, unless stated otherwise. For example, BiP binding peptides 6BB# and oxLDL were coated at 50 μg/ml. Native haemoglobin (Sigma-Aldrich, H7379), albumin, IgIV Gammagard and ovalbumin controls were prepared from lyophilized stocks. The controls were prepared by dissolving lyophilized proteins at 1 mg/ml in PBS upon resuspending by pipetting, followed by a 30 minutes period at the roller device, at room temperature. The protein solutions were centrifuged for 10 minutes at 16,000*g and diluted in coat buffer. After coating the plates were washed at least three times with 50 mM Tris-HCl pH 7.3, 150 mM NaCl, 0.1% v/v Tween20, and blocked with Blocking reagent (Roche Diagnostics, Almere, The Netherlands; 11112589001), for 1 h at room temperature, with motion. Plates were washed three times and incubated in triplicate with indicated chaperone dilution series, at 50 μl/well, for 1 h at room temperature, with constant motion. For HSP90, 5 mM DTT is incorporated in the binding buffer (PBS/0.1% Tween20) to avoid unwanted disulfide bond formation of the HSP90. Plates were washed three times and incubated with anti-FLAG antibody (mouse antibody, M2, peroxidase conjugate; Sigma, A-8592) for BiP-FLAG-His, anti-His-tag antibody (Mouse Monoclonal Antibody, Cat. No. 70796, Novagen [0.2 mg/ml]) for HSP60, a 1:1 mix of 500-fold diluted anti-HSP90beta antibodies (Stressgen, SPA-643 [mouse monoclonal IgM], SPA-646 [rabbit polyclonal]) for HSP90 and an anti-DnaK antibody (Stressgen, 023SPA-880D [mouse monoclonal antibody]) for DnaK. After four wash cycles, secondary antibodies were added to the wells when required, 50 μl/well, for 45′ at room temperature, with motion. RAMPO and SWARPO were used at 3000 times dilution. […] In a second experiment with more immobilized misfolded proteins and controls, the detection of bound HSP90 with the mix of two anti-HSP90 antibodies was achieved by mixing 1:1500 SWARPO with 1:3000 RAMPO. After 5 washes with wash buffer followed by two washes with PBS, binding of antibodies was assessed. Bound anti-FLAG-PO, peroxidase-conjugated rabbit anti-mouse immunoglobulins (RAMPO, P0260, DAKOCytomation, Glostrup, Denmark) or peroxidase-coupled swine anti-rabbit immunoglobulins (SWARPO, P0217, DAKOCytomation) was visualized with tetramethylbenzidine (TMB, #45.01.20,/#45.014.01, Biosource, Nivelles, Belgium). The reaction was stopped after 5 minutes with 1% H2SO4 in H2O. Plates were read at 450 nm. Triplicates were averaged and standard deviations calculated. Background signals obtained with buffer-coated wells were subtracted (binding of primary antibody to empty wells), as well as background signals obtained with ligand-coated wells in which the chaperones were omitted (binding of primary and secondary antibody to coated ligands). Subsequently, sub-optimal concentrations of chaperones for binding to misfolded protein ligands are determined, and these concentrations are used for inhibition studies. […] We have previously identified that a sub-fraction of IgIV molecules has affinity for misfolded proteins comprising crossbeta structure (pending patent application). Moreover, we identified that the sub-fraction of IgIV molecules directly binds to crossbeta structure and/or crossbeta structure induced conformation (not shown; pending patent application). […]

human BiP [2] = target: T1, human BiP; assay: Competition ELISA: BiP binding to misfolded proteins under influence of crossbeta binding compounds; conditions: for Influence of Congo red on interaction of BiP with misfolded protein / Influence of ThS on interaction of BiP with misfolded protein / Influence of ThT on interaction of BiP with misfolded protein: fixed sub-optimal BiP concentration; for Influence of Congo red on interaction of BiP with misfolded protein: concentration series of Congo red; for Influence of ThS on interaction of BiP with misfolded protein: concentration series of ThS; for Influence of ThT on interaction of BiP with misfolded protein: concentration series of ThT
Method: Binding of chaperones to immobilized (misfolded) protein ligands was determined using an enzyme linked immuno sorbent assay (ELISA) approach. For this purpose 50 μl/well of potential ligands at indicated concentrations or coat buffer only for control and background measurement purposes, were coated overnight at 4° C. or coated for 1 h at room temperature, with motion, in 50 mM NaHCO3 pH 9.6 (coat buffer). In general, ligands were coated at 5 μg/ml, unless stated otherwise. For example, BiP binding peptides 6BB# and oxLDL were coated at 50 μg/ml. Native haemoglobin (Sigma-Aldrich, H7379), albumin, IgIV Gammagard and ovalbumin controls were prepared from lyophilized stocks. The controls were prepared by dissolving lyophilized proteins at 1 mg/ml in PBS upon resuspending by pipetting, followed by a 30 minutes period at the roller device, at room temperature. The protein solutions were centrifuged for 10 minutes at 16,000*g and diluted in coat buffer. After coating the plates were washed at least three times with 50 mM Tris-HCl pH 7.3, 150 mM NaCl, 0.1% v/v Tween20, and blocked with Blocking reagent (Roche Diagnostics, Almere, The Netherlands; 11112589001), for 1 h at room temperature, with motion. Plates were washed three times and incubated in triplicate with indicated chaperone dilution series, at 50 μl/well, for 1 h at room temperature, with constant motion. For HSP90, 5 mM DTT is incorporated in the binding buffer (PBS/0.1% Tween20) to avoid unwanted disulfide bond formation of the HSP90. […] After four wash cycles, secondary antibodies were added to the wells when required, 50 μl/well, for 45′ at room temperature, with motion. RAMPO and SWARPO were used at 3000 times dilution. […] In a second experiment with more immobilized misfolded proteins and controls, the detection of bound HSP90 with the mix of two anti-HSP90 antibodies was achieved by mixing 1:1500 SWARPO with 1:3000 RAMPO. After 5 washes with wash buffer followed by two washes with PBS, binding of antibodies was assessed. Bound anti-FLAG-PO, peroxidase-conjugated rabbit anti-mouse immunoglobulins (RAMPO, P0260, DAKOCytomation, Glostrup, Denmark) or peroxidase-coupled swine anti-rabbit immunoglobulins (SWARPO, P0217, DAKOCytomation) was visualized with tetramethylbenzidine (TMB, #45.01.20,/#45.014.01, Biosource, Nivelles, Belgium). The reaction was stopped after 5 minutes with 1% H2SO4 in H2O. Plates were read at 450 nm. Triplicates were averaged and standard deviations calculated. Background signals obtained with buffer-coated wells were subtracted (binding of primary antibody to empty wells), as well as background signals obtained with ligand-coated wells in which the chaperones were omitted (binding of primary and secondary antibody to coated ligands). Subsequently, sub-optimal concentrations of chaperones for binding to misfolded protein ligands are determined, and these concentrations are used for inhibition studies.
In a subsequent study we analysed whether BiP interacts directly with the crossbeta structure, by performing ELISA binding studies with a fixed sub-optimal concentration of BiP and concentration series of crossbeta binding compounds. The results are depicted in FIGS. 12, 13 and Table 7. Binding of BiP without added crossbeta binding compounds was set to 100%.

[3] = target: T2, Escherichia coli HSP70 family member DnaK (Escherichia coli, UniProt P0A6Y8); assay: ELISA: binding of DnaK to immobilized (misfolded) protein ligands
T2 construct: purchased Stressgen (Ann Arbor, Mich., USA) SPP-630
T2 sequence (P0A6Y8 whole entry): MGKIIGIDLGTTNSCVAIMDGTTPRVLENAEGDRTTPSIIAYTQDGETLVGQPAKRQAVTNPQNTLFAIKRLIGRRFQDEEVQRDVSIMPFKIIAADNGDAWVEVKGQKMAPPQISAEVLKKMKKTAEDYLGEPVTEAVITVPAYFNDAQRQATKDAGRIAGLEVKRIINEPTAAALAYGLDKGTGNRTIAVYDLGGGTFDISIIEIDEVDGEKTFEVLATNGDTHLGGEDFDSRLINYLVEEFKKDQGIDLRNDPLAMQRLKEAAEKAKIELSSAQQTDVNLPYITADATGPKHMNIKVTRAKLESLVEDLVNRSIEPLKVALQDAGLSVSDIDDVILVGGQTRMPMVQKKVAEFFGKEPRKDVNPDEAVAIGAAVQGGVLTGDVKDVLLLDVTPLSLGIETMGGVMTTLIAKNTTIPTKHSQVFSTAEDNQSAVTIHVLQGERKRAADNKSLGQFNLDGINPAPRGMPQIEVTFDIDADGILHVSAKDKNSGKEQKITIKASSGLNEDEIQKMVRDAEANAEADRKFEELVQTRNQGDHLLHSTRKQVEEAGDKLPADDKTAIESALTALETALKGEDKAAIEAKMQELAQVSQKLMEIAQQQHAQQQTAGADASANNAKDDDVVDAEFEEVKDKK
Method: Recombinant Escherichia coli (E. coli) DnaK was purchased from Stressgen (Ann Arbor, Mich., USA; SPP-630). For the binding studies first lot B502468 (100 μg, lot A) and then lot 05240609 (200 μg, lot B) was used.
as §1

[4] = target: T3, human mitochondrial HSP60 (Homo sapiens, UniProt P10809); assay: ELISA: binding of HSP60 to immobilized (misfolded) protein ligands
T3 construct: Dr. W. van Eden, Utrecht University; host or cells: E. coli
T3 sequence (P10809 27-573): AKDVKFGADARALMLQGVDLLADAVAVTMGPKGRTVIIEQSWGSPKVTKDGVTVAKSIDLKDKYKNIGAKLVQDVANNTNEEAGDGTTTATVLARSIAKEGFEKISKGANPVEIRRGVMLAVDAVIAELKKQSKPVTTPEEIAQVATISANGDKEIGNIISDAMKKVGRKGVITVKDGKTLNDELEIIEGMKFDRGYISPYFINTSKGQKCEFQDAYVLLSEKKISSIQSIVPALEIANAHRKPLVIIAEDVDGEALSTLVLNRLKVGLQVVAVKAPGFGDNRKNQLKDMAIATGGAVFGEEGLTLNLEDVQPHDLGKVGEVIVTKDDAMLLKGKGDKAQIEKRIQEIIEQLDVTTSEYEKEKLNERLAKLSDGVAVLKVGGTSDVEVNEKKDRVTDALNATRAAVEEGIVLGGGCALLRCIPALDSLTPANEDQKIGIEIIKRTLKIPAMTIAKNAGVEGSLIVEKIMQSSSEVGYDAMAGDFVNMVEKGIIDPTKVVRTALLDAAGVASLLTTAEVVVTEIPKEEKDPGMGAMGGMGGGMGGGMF
Method: Recombinant human HSP60 with N-terminal His-tag was a kind gift of Dr. R. van der Zee and Prof. Dr. W. van Eden (Institute of Infectious Diseases and Immunology, Faculty of Veterinary Medicine, Utrecht University, Utrecht, The Netherlands), and was supplied in lyophilized form. The HSP60 was produced in E. coli and purified using Nickel-Sepharose. The HSP60 was lyophilized from 20-40 mM ammonium-bicarbonate solution, after purification, and stored at −20° C. The construct lacks the mitochondrial signal sequence. […] Before use, the lyophilized protein is dissolved at room temperature at 1 mg/ml in 20-40 mM NH4HCO3, resulting in a pH of 7.0. Aliquots are stored at −20° C. or −80° C. The mitochondrial HSP60 is a functional dimer of heptamers (MW(HSP60 monomer)=˜58 kDa), and is involved in multimer protein assembling and aids in transport of unfolded proteins across membranes. For the binding studies, at two occasions separate HSP60 solutions were prepared originating from the same batch of purified protein, lyophilized in separate Eppendorf cups.
Binding of chaperones to immobilized (misfolded) protein ligands was determined using an enzyme linked immuno sorbent assay (ELISA) approach. For this purpose 50 μl/well of potential ligands at indicated concentrations or coat buffer only for control and background measurement purposes, were coated overnight at 4° C. or coated for 1 h at room temperature, with motion, in 50 mM NaHCO3 pH 9.6 (coat buffer). In general, ligands were coated at 5 μg/ml, unless stated otherwise. For example, BiP binding peptides 6BB# and oxLDL were coated at 50 μg/ml. Native haemoglobin (Sigma-Aldrich, H7379), albumin, IgIV Gammagard and ovalbumin controls were prepared from lyophilized stocks. The controls were prepared by dissolving lyophilized proteins at 1 mg/ml in PBS upon resuspending by pipetting, followed by a 30 minutes period at the roller device, at room temperature. The protein solutions were centrifuged for 10 minutes at 16,000*g and diluted in coat buffer. After coating the plates were washed at least three times with 50 mM Tris-HCl pH 7.3, 150 mM NaCl, 0.1% v/v Tween20, and blocked with Blocking reagent (Roche Diagnostics, Almere, The Netherlands; 11112589001), for 1 h at room temperature, with motion. Plates were washed three times and incubated in triplicate with indicated chaperone dilution series, at 50 μl/well, for 1 h at room temperature, with constant motion. For HSP90, 5 mM DTT is incorporated in the binding buffer (PBS/0.1% Tween20) to avoid unwanted disulfide bond formation of the HSP90. Plates were washed three times and incubated with anti-FLAG antibody (mouse antibody, M2, peroxidase conjugate; Sigma, A-8592) for BiP-FLAG-His, anti-His-tag antibody (Mouse Monoclonal Antibody, Cat. No. 70796, Novagen [0.2 mg/ml]) for HSP60, a 1:1 mix of 500-fold diluted anti-HSP90beta antibodies (Stressgen, SPA-643 [mouse monoclonal IgM], SPA-646 [rabbit polyclonal]) for HSP90 and an anti-DnaK antibody (Stressgen, 023SPA-880D [mouse monoclonal antibody]) for DnaK. After four wash cycles, secondary antibodies were added to the wells when required, 50 μl/well, for 45′ at room temperature, with motion. RAMPO and SWARPO were used at 3000 times dilution. […] In a second experiment with more immobilized misfolded proteins and controls, the detection of bound HSP90 with the mix of two anti-HSP90 antibodies was achieved by mixing 1:1500 SWARPO with 1:3000 RAMPO. After 5 washes with wash buffer followed by two washes with PBS, binding of antibodies was assessed. Bound anti-FLAG-PO, peroxidase-conjugated rabbit anti-mouse immunoglobulins (RAMPO, P0260, DAKOCytomation, Glostrup, Denmark) or peroxidase-coupled swine anti-rabbit immunoglobulins (SWARPO, P0217, DAKOCytomation) was visualized with tetramethylbenzidine (TMB, #45.01.20,/#45.014.01, Biosource, Nivelles, Belgium). The reaction was stopped after 5 minutes with 1% H2SO4 in H2O. Plates were read at 450 nm. […]

T1 sequence (P11021 19-654): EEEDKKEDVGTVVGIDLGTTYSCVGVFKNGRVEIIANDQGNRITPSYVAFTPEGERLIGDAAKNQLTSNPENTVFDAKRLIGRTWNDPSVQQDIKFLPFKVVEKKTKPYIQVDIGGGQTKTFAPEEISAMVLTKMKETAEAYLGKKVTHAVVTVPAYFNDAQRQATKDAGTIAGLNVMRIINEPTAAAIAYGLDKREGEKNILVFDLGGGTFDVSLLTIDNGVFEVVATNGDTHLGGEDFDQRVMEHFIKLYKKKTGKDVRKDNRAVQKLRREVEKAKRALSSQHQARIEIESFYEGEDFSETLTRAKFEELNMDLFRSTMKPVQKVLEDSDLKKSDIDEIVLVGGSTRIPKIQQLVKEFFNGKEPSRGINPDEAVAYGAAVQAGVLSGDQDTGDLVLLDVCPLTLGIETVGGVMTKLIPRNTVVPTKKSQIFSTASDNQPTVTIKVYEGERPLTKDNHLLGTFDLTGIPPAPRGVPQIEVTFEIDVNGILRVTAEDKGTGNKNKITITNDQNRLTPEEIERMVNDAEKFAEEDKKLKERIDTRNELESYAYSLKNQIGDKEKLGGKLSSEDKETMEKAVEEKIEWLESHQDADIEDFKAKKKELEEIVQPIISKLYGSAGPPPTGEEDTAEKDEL

| Substance | Binding of concentration series of BiP to coated ligand (human BiP [1]) | Influence of Congo red on interaction of BiP with misfolded protein (human BiP [2]) | Influence of ThS on interaction of BiP with misfolded protein (human BiP [2]) | Influence of ThT on interaction of BiP with misfolded protein (human BiP [2]) | Binding of concentration series of DnaK to coated ligand [3] | Influence on interaction of BiP with misfolded proteins comprising crossbeta structure (summary in words) (human BiP [2]; BiP binding without compound set to 100%) | Binding of concentration series of HSP60 to coated ligand [4] |
| --- | --- | --- | --- | --- | --- | --- | --- |
| FWGLWPWE [6BB11] | has been established | ↓ (a ↓ sign refers to inhibited abolished binding of BiP) | ↓ (a ↓ sign refers to inhibited abolished binding of BiP) | ↓ (a ↓ sign refers to inhibited abolished binding of BiP) | did not bind |  |  |
| LFWPFEWI [6BB9] | has been established | ↓ (a ↓ sign refers to inhibited abolished binding of BiP) | ↓ (a ↓ sign refers to inhibited abolished binding of BiP) | ↓ (a ↓ sign refers to inhibited abolished binding of BiP) |  |  |  |
| RRRAA [6BB13] | no BiP binding was observed |  |  |  | did not bind |  |  |
| Thioflavin S [ThS] |  |  |  |  |  | can either potentiate BiP binding, or inhibit |  |
| YVDRFIGW [6BB8] | no BiP binding was observed |  |  |  | did not bind |  |  |
| fibrin: fibrin immobilized in wells from fibrinogen and factor IIa | has been established |  |  |  | has been established |  | has been established |

From US20100015126A1, “Methods of Binding of Cross-Beta Structures By Chaperones” (priority 2006, published 2010)
